Read-outs that look alike come from different tables or passages of the source.
Tests used:
[1] = molecular target: T1, Ago2 (Flag-tagged, HFT-Ago2) (UniProt Q9UKV8 1-859); assay: pull-down
Ago2 (HaloTag-Ago2) [2] = molecular target: T2, Ago2 (HaloTag-Ago2) (UniProt Q9UKV8 1-859); assay: competition filter binding
Ago2 (HaloTag-Ago2) [3] = molecular target: T2, Ago2 (HaloTag-Ago2); assay: pull-down
[4] = molecular target: T1, Ago2 (Flag-tagged, HFT-Ago2); assay: pull-down; remark: listed apart in the source
[5] = molecular target: T1, Ago2 (Flag-tagged, HFT-Ago2); assay: filter binding
[6] = molecular target: T1, Ago2 (Flag-tagged, HFT-Ago2); assay: competition filter binding

T1 sequence (Q9UKV8 whole entry): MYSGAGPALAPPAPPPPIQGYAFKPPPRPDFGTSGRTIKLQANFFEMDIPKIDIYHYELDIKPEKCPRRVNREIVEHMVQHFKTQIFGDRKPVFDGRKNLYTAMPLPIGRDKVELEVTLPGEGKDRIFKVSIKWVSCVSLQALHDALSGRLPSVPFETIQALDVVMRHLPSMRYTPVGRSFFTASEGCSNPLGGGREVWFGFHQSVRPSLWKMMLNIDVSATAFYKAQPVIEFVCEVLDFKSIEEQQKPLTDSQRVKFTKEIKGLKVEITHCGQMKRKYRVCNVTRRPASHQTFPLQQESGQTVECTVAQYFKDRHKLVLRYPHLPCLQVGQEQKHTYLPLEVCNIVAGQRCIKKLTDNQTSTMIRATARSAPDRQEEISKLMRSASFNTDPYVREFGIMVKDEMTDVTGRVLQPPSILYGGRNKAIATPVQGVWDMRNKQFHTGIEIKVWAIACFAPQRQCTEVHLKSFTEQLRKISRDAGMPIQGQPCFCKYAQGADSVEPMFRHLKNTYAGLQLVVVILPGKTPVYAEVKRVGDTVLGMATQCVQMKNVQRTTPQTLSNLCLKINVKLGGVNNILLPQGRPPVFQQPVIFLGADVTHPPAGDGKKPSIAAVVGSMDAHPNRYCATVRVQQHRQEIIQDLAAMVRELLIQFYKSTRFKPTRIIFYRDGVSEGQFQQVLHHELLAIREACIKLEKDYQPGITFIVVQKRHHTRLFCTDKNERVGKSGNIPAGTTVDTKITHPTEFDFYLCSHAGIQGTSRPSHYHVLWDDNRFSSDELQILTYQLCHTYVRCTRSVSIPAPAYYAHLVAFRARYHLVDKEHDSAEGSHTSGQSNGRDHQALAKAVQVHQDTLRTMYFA
T2 sequence (Q9UKV8 whole entry): as above

B1: miR122-v1 guide / target-2 (seed-only) (mixed)
RNA 1: UGGAGUGUGACAGCGGCGAAAG
RNA 2: AUAGAAAAACACUCCUAA
modifications: 5'-phosphate on guide
[1]
  binding result: binds

B2: miR122-v2 guide / target-2 (seed + sup) (mixed)
RNA 1: UGGAGUGUGACACUAUCGAAAG
RNA 2: AUAGAAAAACACUCCUAA
modifications: 5'-phosphate on guide
Ago2 (HaloTag-Ago2) [2]
  binding signal: ~5 fold bound over target-1

B3: miR122-v2 guide / target-1 (seed-only) (mixed)
RNA 1: UGGAGUGUGACACUAUCGAAAG
RNA 2: CCGCAAAAAAAAAAACACUCCUAA
modifications: 5'-phosphate on guide
Ago2 (HaloTag-Ago2) [3]
  binding result: binds

B4: miR122-v1 guide / target-1 with swapped (4 nt) bridge (mixed)
RNA 1: UGGAGUGUGACAGCGGCGAAAG
RNA 2: CCGCAAAAACACUCCUAA
modifications: 5'-phosphate on guide
[4]
  binding result: binds

B5: miR122-v1 guide / target-1 (seed + sup) (mixed)
RNA 1: UGGAGUGUGACAGCGGCGAAAG
RNA 2: CCGCAAAAAAAAAAACACUCCUAA
modifications: 5'-phosphate on guide
[5]
  Kd: 5.6 ± 0.5 pM
[6]
  binding signal: ~13 fold bound over target-2

Reference: article PMC6961540
